# Source: US20190002587A1 (AROCELL, published 2019)
# Where no end group is shown, it is not given here.
# Legend:
# PGKPGEAVAA [1] = molecular target: T1, PGKPGEAVAA (human, also: biotinylated); assay: Pepscan ELISA, peptide on streptavidin plate
# T1 peptide: PGKPGEAVAA
# Method: (§1) In order to determine the amino acid region to which the selected monoclonal antibodies bind a Pepscan analysis with biotinylated 10 amino acid target peptides was carried out. The procedure is based on synthesis of a set of 14 ten-mer amino acid peptides representing the region from 193 to 226 of the TK1 sequence as shown in connection with Example 1. Each peptide has an eight amino acids overlap and two amino acids gaps, leading to a set of 14 different peptides, see Table 2. The entire full-length peptide is also included and all these peptides were immobilized on a streptavidine coated microtiter plate. After a 1 hour adsorption step the plates were washed with PBS, 1% BSA and 0.1% Tween 20. The different antibodies were then added at approximately 5 μg/ml and the plates were incubated for 1 hour, followed by washing three times. Then a HRP conjugate was added and incubated for 1 hour. The plates were then washed six times with the same buffer. Finally the absorbance was determined with 100 μl 3,3′,5,5′-tetramethylbenzidine (TMB) substrate and the results from one test with a series of antibodies are shown in Table 2.
# AVAARKLFAP [2] = molecular target: T2, AVAARKLFAP (human, also: biotinylated); assay: Pepscan ELISA, peptide on streptavidin plate
# T2 peptide: AVAARKLFAP
# Method: as §1
# NCPVPGKPGE [3] = molecular target: T3, NCPVPGKPGE (human, also: biotinylated); assay: Pepscan ELISA, peptide on streptavidin plate
# T3 construct: also called peptide 7
# T3 peptide: NCPVPGKPGE
# Method: as §1
# AARKLFAPQQ [4] = molecular target: T4, AARKLFAPQQ (human, also: biotinylated, position not given here); assay: Pepscan ELISA, peptide on streptavidin plate
# T4 peptide: AARKLFAPQQ
# Method: as §1
# KENCPVPGKP [5] = molecular target: T5, KENCPVPGKP (human, also: biotinylated); assay: Pepscan ELISA, peptide on streptavidin plate
# T5 peptide: KENCPVPGKP
# Method: as §1
# GPDNKENCPV [6] = molecular target: T6, GPDNKENCPV (human, also: biotinylated); assay: Pepscan ELISA, peptide on streptavidin plate
# T6 peptide: GPDNKENCPV
# Method: as §1
# PVPGKPGEAV [7] = molecular target: T7, PVPGKPGEAV (human, also: biotinylated); assay: Pepscan ELISA, peptide on streptavidin plate
# T7 construct: also called peptide 8
# T7 peptide: PVPGKPGEAV
# Method: as §1
# PAGPDNKENC [8] = molecular target: T8, PAGPDNKENC (human, also: biotinylated); assay: Pepscan ELISA, peptide on streptavidin plate
# T8 peptide: PAGPDNKENC
# Method: as §1
# GQPAGPDNKE [9] = molecular target: T9, GQPAGPDNKE (human, also: biotinylated); assay: Pepscan ELISA, peptide on streptavidin plate
# T9 peptide: GQPAGPDNKE
# Method: as §1
# XPA 210 peptide = molecular target: T10, XPA 210 peptide (human, immobilized on streptavidin coated plate (biotinylated) in the Pepscan); assay: Pepscan ELISA, peptide on streptavidin plate
# T10 construct: also called 31-mer; 31-mer peptide
# T10 peptide: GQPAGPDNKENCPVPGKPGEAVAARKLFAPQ
# Method: as §1
# ASGQPAGPDN [10] = molecular target: T11, ASGQPAGPDN (human, also: biotinylated, position not given here); assay: Pepscan ELISA, peptide on streptavidin plate
# T11 peptide: ASGQPAGPDN
# Method: as §1
# DNKENCPVPG [11] = molecular target: T12, DNKENCPVPG (human, also: biotinylated); assay: Pepscan ELISA, peptide on streptavidin plate
# T12 peptide: DNKENCPVPG
# Method: as §1
# GEAVAARKLF [12] = molecular target: T13, GEAVAARKLF (human, also: biotinylated); assay: Pepscan ELISA, peptide on streptavidin plate
# T13 construct: also called 10-mer; 10-mer peptide
# T13 peptide: GEAVAARKLF
# Method: as §1
# KPGEAVAARK [13] = molecular target: T14, KPGEAVAARK (human, also: biotinylated); assay: Pepscan ELISA, peptide on streptavidin plate
# T14 peptide: KPGEAVAARK
# Method: as §1
# ARKLFAPQQI [14] = molecular target: T15, ARKLFAPQQI (human, also: biotinylated, position not given here); assay: Pepscan ELISA, peptide on streptavidin plate
# T15 peptide: ARKLFAPQQI
# Method: as §1
# human recombinant TK1 [15] = molecular target: T16, human recombinant TK1 (human, UniProt P04183 1-234, limits assumed); assay: Attana 200 quartz crystal microbalance biosensor, antibody captured by anti-mouse IgG, rTK1 injected, 1:1 model
# T16 construct: also called human rTK1; rTK1
# T16 sequence (looked up): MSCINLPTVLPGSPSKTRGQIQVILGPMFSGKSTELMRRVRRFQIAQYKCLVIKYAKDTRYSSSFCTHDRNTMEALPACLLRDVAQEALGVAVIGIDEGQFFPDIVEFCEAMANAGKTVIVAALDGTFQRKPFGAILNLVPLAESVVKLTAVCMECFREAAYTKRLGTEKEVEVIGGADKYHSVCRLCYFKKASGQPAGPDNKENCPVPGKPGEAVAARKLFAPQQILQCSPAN
# Method: (§2) In the experiment shown in FIGS. 8A and 8B an LNB Carboxyl sensor chip was used, which was pre-reacted with the Mouse IgG capture kit (Biacore, GE Healthcare) with the amine coupling procedure. The ligands were XPA 210-Ar1 and XPA 210-Ar2 and they were captured to the surface with anti-mouse antibodies by two injections of 50 μg/ml antibody solutions in a 10 mM acetate buffer pH 4.5. An identically treated chip without the capture antibody was used a negative control. Pure recombinant TK1, diluted to 20 μg/ml in 10 mM HEPES, 150 mM NaCl, 0.005% Tween 20, pH 7.4, was injected over the surface at 25 μl/min. The association time was 84 s and the dissociation was measured for another 300 s. Buffer without recombinant TK1 was injected as a blank and subtracted from the sample injection signals.
# (§3) An 1:1 binding model was used for calculation of the kinetic constants from the fitted curves of the double reference data as shown in FIGS. 8A and 8B.
# human recombinant TK1 [16] = molecular target: T16, human recombinant TK1; assay: Attana quartz crystal microbalance, antibody captured by anti-mouse IgG on the chip, recombinant TK1 injected at 20 to 1.25 ug/ml, 1:1 binding model
# Method: as §2, §3
# PGKPGEAVAA [17] = molecular target: T1, PGKPGEAVAA; assay: Pepscan ELISA
# Method: as §1
# AVAARKLFAP [18] = molecular target: T2, AVAARKLFAP; assay: Pepscan ELISA
# Method: as §1
# NCPVPGKPGE [19] = molecular target: T3, NCPVPGKPGE; assay: Pepscan ELISA
# Method: as §1
# AARKLFAPQQ [20] = molecular target: T4, AARKLFAPQQ; assay: Pepscan ELISA
# Method: as §1
# KENCPVPGKP [21] = molecular target: T5, KENCPVPGKP; assay: Pepscan ELISA
# Method: as §1
# GPDNKENCPV [22] = molecular target: T6, GPDNKENCPV; assay: Pepscan ELISA
# Method: as §1
# PVPGKPGEAV [23] = molecular target: T7, PVPGKPGEAV; assay: Pepscan ELISA
# Method: as §1
# PAGPDNKENC [24] = molecular target: T8, PAGPDNKENC; assay: Pepscan ELISA
# Method: as §1
# GQPAGPDNKE [25] = molecular target: T9, GQPAGPDNKE; assay: Pepscan ELISA
# Method: as §1
# ASGQPAGPDN [26] = molecular target: T11, ASGQPAGPDN; assay: Pepscan ELISA
# Method: as §1
# DNKENCPVPG [27] = molecular target: T12, DNKENCPVPG; assay: Pepscan ELISA
# Method: as §1
# GEAVAARKLF [28] = molecular target: T13, GEAVAARKLF; assay: Pepscan ELISA
# Method: as §1
# KPGEAVAARK [29] = molecular target: T14, KPGEAVAARK; assay: Pepscan ELISA
# Method: as §1
# ARKLFAPQQI [30] = molecular target: T15, ARKLFAPQQI; assay: Pepscan ELISA
# Method: as §1
Binder,absorbance at 415 nm (PGKPGEAVAA [1]) [absorbance],absorbance at 415 nm (AVAARKLFAP [2]) [absorbance],absorbance at 415 nm (NCPVPGKPGE [3]) [absorbance],absorbance at 415 nm (AARKLFAPQQ [4]) [absorbance],absorbance at 415 nm (KENCPVPGKP [5]) [absorbance],absorbance at 415 nm (GPDNKENCPV [6]) [absorbance],absorbance at 415 nm (PVPGKPGEAV [7]) [absorbance],absorbance at 415 nm (PAGPDNKENC [8]) [absorbance],absorbance at 415 nm (GQPAGPDNKE [9]) [absorbance],absorbance at 415 nm (XPA 210 peptide) [absorbance],absorbance at 415 nm (ASGQPAGPDN [10]) [absorbance],absorbance at 415 nm (DNKENCPVPG [11]) [absorbance],absorbance at 415 nm (GEAVAARKLF [12]) [absorbance],absorbance at 415 nm (KPGEAVAARK [13]) [absorbance],absorbance at 415 nm (ARKLFAPQQI [14]) [absorbance],other results
"XPA 210-Ar1 (antibody, V domains shown, Mouse monoclonal from hybridoma; also called monoclonal antibody XPA 210-Ar1) VH: QVQLQQSGAELVRPGASMKLSCKALGYTLTDYEMHWVKQTPAHGLEWIGAIHPGYGGTAYNQKFKGKATLTADKSSSTAYMELSSLTSEDSAVYYCTTFITKFDYWGQGTTLTVSS VL: not shown",0.112,0.125,0.114,0.137,0.109,0.112,0.115,0.12,0.108,3.84,0.113,0.108,3.51,0.116,0.13,Kd (human recombinant TK1 [15]): 0.65 nM; koff (human recombinant TK1 [16]): 1.61e-05 s⁻¹; kon (human recombinant TK1 [16]): 24800 M⁻¹ s⁻¹
"XPA 210-Ar2 (antibody, V domains shown, Mouse monoclonal from hybridoma; also called Sup-162; XPA-Ar2) VH: QVQLQQSGAELVRPGASVKLSCKALGYTFTDYEMHWVRQTPVHGLEWIGAILPGSGGTAYNQKFKGKATLTADKSSSTAYMELSSLTSEDSAVYYCTTLITTFDYWGQGTTLTVSS VL: not shown",0.067,0.077,0.064,0.066,0.063,0.063,0.067,0.063,0.064,3.79,0.067,0.063,0.072,0.072,0.063,binding result (PGKPGEAVAA [17]): no binding (tested: approximately 5 µg/ml); binding result (AVAARKLFAP [18]): no binding (tested: approximately 5 µg/ml); binding result (NCPVPGKPGE [19]): no binding (tested: approximately 5 µg/ml); binding result (AARKLFAPQQ [20]): no binding (tested: approximately 5 µg/ml); binding result (KENCPVPGKP [21]): no binding (tested: approximately 5 µg/ml); binding result (GPDNKENCPV [22]): no binding (tested: approximately 5 µg/ml); binding result (PVPGKPGEAV [23]): no binding (tested: approximately 5 µg/ml); binding result (PAGPDNKENC [24]): no binding (tested: approximately 5 µg/ml); binding result (GQPAGPDNKE [25]): no binding (tested: approximately 5 µg/ml); binding result (ASGQPAGPDN [26]): no binding (tested: approximately 5 µg/ml); binding result (DNKENCPVPG [27]): no binding (tested: approximately 5 µg/ml); binding result (GEAVAARKLF [28]): no binding (tested: approximately 5 µg/ml); binding result (KPGEAVAARK [29]): no binding (tested: approximately 5 µg/ml); binding result (ARKLFAPQQI [30]): no binding (tested: approximately 5 µg/ml)
"XPA 210-Ar3 (antibody, V domains shown, Mouse monoclonal from hybridoma; also called Sup-165) VH: DVQLQESGPDLVKPSQSLSLTCTVTGYSITSGYSWHWIRQFPGNKLEWLGYIHYSGSTTYNPSLKGRISITRDTSKNQFFLQLNSVTTEDTATYYCARWGTGHWYFDVWAAGTTVTVSS VL: QAVVTQESALTTSPGKTVTLTCRSSTGAVTTTNYANWVQEKPDHLFTGLIGGTNNRVPGVPARFSGSLIGDKAALTITGAQTEDEAIYFCALWYSNHWVFGGGTKLTVL",0.059,0.062,1.99,0.06,0.058,0.06,1.84,0.055,0.057,0.136,0.057,0.059,0.057,0.059,0.062,–
